Tests used:
[1] = biological target: T1, FtsR-Strep (Corynebacterium glutamicum ATCC13032) (UniProt Q8NQJ2); experiment: competition; settings: EMSA: 10 mM Tris-HCl pH 7.5, 30 mM NaCl, 1.5 mM Na2EDTA, room temperature, 30 min; 15% native PAGE in 1x TBE (competition EMSA: 10% gel)
T1 sequence: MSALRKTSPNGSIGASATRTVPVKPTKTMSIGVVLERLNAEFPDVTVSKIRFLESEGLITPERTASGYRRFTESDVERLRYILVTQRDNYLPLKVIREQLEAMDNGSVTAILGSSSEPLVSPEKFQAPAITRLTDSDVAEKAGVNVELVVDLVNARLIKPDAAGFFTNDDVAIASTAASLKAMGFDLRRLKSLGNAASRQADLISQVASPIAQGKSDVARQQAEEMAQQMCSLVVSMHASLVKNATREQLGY

[2] = biological target: T1, FtsR-Strep (Corynebacterium glutamicum ATCC13032); experiment: EMSA; settings: EMSA: 10 mM Tris-HCl pH 7.5, 30 mM NaCl, 1.5 mM Na2EDTA, room temperature, 30 min; 15% native PAGE in 1x TBE (competition EMSA: 10% gel)
[3] = biological target: FtsR-Strep (FtsR, Cg1631, of Corynebacterium glutamicum ATCC13032 with C-terminal StrepTag-II) (Corynebacterium glutamicum ATCC13032); experiment: SEC; affinity-purified FtsR-Strep on Superdex 200 Increase 10/300 GL, buffer W (50 mM Tris-HCl, 250 mM NaCl, pH 7.5), 0.6 mL/min; compared to standard proteins
FtsR-Strep = biological target: T2, FtsR-Strep (Corynebacterium glutamicum ATCC13032, UniProt Q8NQJ2 1-252); experiment: EMSA; 1 uM DNA; complete shift at 2-fold molar excess of dimer; EMSA: 10 mM Tris-HCl pH 7.5, 30 mM NaCl, 1.5 mM Na2EDTA, room temperature, 30 min; 15% native PAGE in 1x TBE (competition EMSA: 10% gel); settings: protein: recombinant; chain copies: 2; blunt
T2 sequence: T1 sequence

With “AGTGCTTCCTGCGGTTATTGCTGTAATCAACGCAATTAAAGCGCAAGATGCGCAGATGACAGAAAGTATCCAGGTAGTGGAAGCTCCGGATCAATTTGATATCTTGCTGAAAATGAATGATGGCCGGGAAATCTACTGGGGATCCTCGGAAAACAACCACGATAAAGCGGTGGCAATGTCGACTGTTTTGAAGCGGGAAGGCCAACGTTGGAACATTAGCTCACCCTCAATGGTGACAGTCCGCTAAAGTGGCTGGGTAG (double strand)” the binding [1] was “no binding”.

With “AGTTCCGGTTCACCCGTTTCCACAACGCGTTTGCCCACCTCAACAACCCTAAAGTAAAGGTTGAGGGTAGCGACACGCCGCTGTAAATGTCCGACACATTGACGTGTTTTTCGCACAAGATATATGTCAGCCGGATTAACACTTTTAGATAAGCTCTCACAGTGCTGACTGCTTATCTGAGATGAAAATAAAAGCAAAATTTTTTTTAGTATCAACTCTTCGAAAGGCGAGACATCGACAATGACCTCACCGAACAACTACCTCGCCAAGA (double strand) [ftsZ promoter 271-bp fragment, Cy3]” the binding [2] was “binds”.

“AGTTCCGGTTCACCCGTTTCCACAACGCGTTTGCCCACCTCAACAACCCTAAAGTAAAGGTTGAGGGTAGCGACACGCCGCTGTAAATGTCCGACACATTGACGTGTTTTTCGCACAAGATATATGTCAGCCGGATTAACACTTTTAGATAAGCTCTCACAGTGCTGACTGCTTATCTGAGATGAAAATAAAAGCAAAATTTTTTTTAGTATCAACTCTTCGAAAGGCGAGACATCGACAATGACCTCACCGAACAACTACCTCGCCAAGA (double strand) [ftsZ promoter 271-bp fragment, unlabeled specific competitor]” was tested, and the binding [1] was “binds”.

For “FtsR-Strep (FtsR, Cg1631, of Corynebacterium glutamicum ATCC13032 with C-terminal StrepTag-II) (natural protein)”, the stoichiometry N [3] was 2.

B1: ftsZ promoter 30-bp oligo (dsDNA)
DNA 1: ACAACCCTAAAGTAAAGGTTGAGGGTAGCG
DNA 2: CGCTACCCTCAACCTTTACTTTAGGGTTGT
B1: binds (FtsR-Strep).

Reference: article PMC6683498, “The conserved actinobacterial transcriptional regulator FtsR controls expression of ftsZ and further target genes and influences growth and cell division in Corynebacterium glutamicum”
